This data set concerns the target T1, human parathyroid hormone, P01270.
T1 chain: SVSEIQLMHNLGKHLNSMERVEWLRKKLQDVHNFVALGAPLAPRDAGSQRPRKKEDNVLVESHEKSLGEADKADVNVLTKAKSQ

B1: Hansenula polymorpha yapsin1 (protein)
chain: DPQFVKLEASVLRGSTYKDSQKGAKPFMLEKRADDGSVTMELQNAQSFYQVEIEIGSDKQKVGVLIDTGSSDLWVMNSNNSYCSSSSTKKLKRDGPADALQKGRDLSDLYNFNSPNEDNNAKGFLGGWGDLTTVETATQDETQTALAAQATVDCSLYGTFNPSTSNSFHNNGTTFEISYADRTFARGTWGYDDVTFNGVTVNDLSLAVADETDSSTGVFGIGLRELETTYSGGGPQHYIYDNLPFKMVDQGLINRAAYSVYLNSTESSTASILFGAVDQSKYTGSLGLLPIINTAASYGYQKPLRLQITLSAITVSDSRGQQASIGSGAAAALLDTGTTLTYAPSEIVEKLAETLGFDYSSSVGAYVARCRDVDSYAVNFDFQGKVIEAPLSSFLIALQTNSGEVSSYCALGIFSSGDESFTLGDTFLRNAYFVADLEGYQIAIANVNLNPGAEQIEVISGNSIPSASSVSDYSNTWGASATALDTDRPTTLGSVTAVGDERVTSTKKVSSVKTSTSSGSGSTSESSTSSSHSSNGPRTVGFSLCAVLCAFLISILVV
On to B1, for which the “degradation level of hPTH by the yapsin activity (culture supernatant incubated with hPTH for 2, 4 and 6 hours at 37 C, SDS-polyacrylamide gel)” value is “in the culture fluid of the wild type, it was already hard to observe hPTH remaining in the culture supernatant after 2 hour cultivation, while in the culture supernatant of hpyps1Δ mutant strain, a substantial amount of hPTH was observed”.

The record behind these values is patent publication US20050239074.
